The values that follow come from patent publication US20070141048A1 (SYMPHOGEN A S, published 2007).

Changes are numbered by the printed parent chain.

First the molecules themselves.
B1: g060c03 (Fab, V domains shown)
VH: KVQLVESGGGLVKPGGSLRLSCAASGSSFSNNNMNWVRQTPGKGLEWVASISFGSHYISYADSVKGRFTISRDNARNAVYLQMNSLRVEDTAVYYCTRCRGGTRTYYYMDVWGKGTLVTVS
VL: EIVMTQSPGTLALSPGDRATLSCGASQSVFGDFLAWYQHKPGQAPRLLIYGASTRATGIPDRFSGSGAGTDFTLTISRLEPEDFAVYFCQQYGDSVFTFGQGTKLEIK
B2: g060f06 (Fab, V domains shown)
VH: B1 VH with K1Q, V5Q, E6Q, S27F
VL: B1 VL with L47P
B3: g060d08 (Fab, V domains shown)
VH: B1 VH with S27F, L117M
VL: B1 VL with E1D, I2V, G51V, K108R
B4: g060b12 (Fab, V domains shown)
VH: B1 VH with K1Q, E6Q, S27F
VL: B1 VL with M4L, E106G
B5: g060c04 (Fab, V domains shown)
VH: QMQLVQSGAEVKKPGSSVKVSCQSSGGPPKSYTLSWVRQAPGQGPEWMGGIILIFGPPNYAQKFQDRLTITADKSTNTVYMELSSLRSDDTAMYYCVTAPDDTGTILARHNRYYFDSWGQGTLVTVS
VL: EIVLTQSPGTLSLSPGQRATLSCRASQSVNRDYLAWYQQKPGQAPRLLIYGASSRATGIPDRFSGSGSGTDFTLTISRLERDDFAVYFCHQYGSSPNTFGQGTKLEIK
B6: g060b06 (Fab, V domains shown)
VH: QVQLQESGGGVVQPGTSLRLSCVVSGFTFRTYGMNWVRQAPGKVLEWLAFVSSDGSDEFYADSVKGRFTVSRDNSKSTLFLKMNSLRADDTAVYYCARDRGAQITLFGAPLIRPSSFDSWGQGTLVTVS
VL: EIVLTQSPSSLSASVGDRITITCQASQDITNYLNWYQQKPGKAPKLLIYDASNLQPGVPSRFSGSRSGTDFTFTISSLRPEDIATYYCQQYDGPVLTFGGGTKVEIK
B7: g060a04 (Fab, V domains shown)
VH: B6 VH with Q1K, Q5V, V44G, V51L, A88P
VL: B6 VL with E1D, I2V, L4M, I19V, R66G, G68V
B8: g060e05 (Fab, V domains shown)
VH: QVQLVESGAEVKKPGSSVKVSCKSSGGYVFSWVRQAPGQGLEWMGGIISNFRTAEYARKFQGRVTMTADTSTNTIYMELTSLTSEDTAVYFCVSAPRDTSTIAARFNRYFFDTWGQGTLVTVS
VL: EIVLTQSPGTLSLSPGERATLSCRASRSVNSNNLAWYQQKPDQAPRLLMYGASSRATGIPDRFTGSGSGTDFTLTISRLEPEDFAVYYCHQYGASDNTFGQGTKLEIK
B9: g060g09 (Fab, V domains shown)
VH: B8 VH with Q1K, E6Q, R52H, R58Q
VL: B8 VL with N30Y
B10: g060h11 (Fab, V domains shown)
VH: QVTLKESGPTVVKPTQTLTLTCSLSGFALGTTGVAVGWIRQPPGKALEWLGLIDWNDDRRYRPSLKTRLTITQDMSRNQVVLRLTNLDPLDTGTYFCARSVVPATRAFDFWGQGTLVTVS
VL: DIQMTQSSSTLSASVGDRVTITCRASQNINIWLAWYQQKAGKAPKLLIYKASTLERGVPSRFSGSGSGTEFTLTITGLRPDDFGSYYCQHYDGNSLTFGQGTRVDIQ
B11: g060d03 (Fab, V domains shown)
VH: QMQLVQSGAEVKKPGTSVRVSCKTSGGYVFSWVRQAPGQGPEWMGGIITNFGTTNYAQKFQGRVTITADKSTNTVYMDLSNLTSEDTAVYYCARAPRGTSTIAARFNRYFFDSWGQGTLVTVS
VL: DIQMTQSPGTLSLSPGERATLSCRASQSVNSDNLAWYQQKPGQAPRLLMSGATSRATDVPDRFSGSGSGTDFTLTISRLEPEDFAVYYCHQYGSSDNTFGQGTKLEIK
B12: g060b05 (Fab, V domains shown)
VH: B11 VH with M2V, P14L, S25P, Q58R, V64I, I66V, T83A
VL: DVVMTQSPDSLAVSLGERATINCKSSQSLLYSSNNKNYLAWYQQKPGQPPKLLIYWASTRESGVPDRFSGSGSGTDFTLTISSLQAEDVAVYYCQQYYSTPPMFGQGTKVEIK
B13: g060b07 (Fab, V domains shown)
VH: B11 VH with Q1E, M2V, Q6E, N50S, N55S, S71A, N81D, V89I, R94K
VL: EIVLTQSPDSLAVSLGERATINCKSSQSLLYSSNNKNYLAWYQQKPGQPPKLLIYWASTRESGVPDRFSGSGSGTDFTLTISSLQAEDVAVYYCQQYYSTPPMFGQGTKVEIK
B14: g060f02 (Fab, V domains shown)
VH: KVQLVQSGAEVKKPGTSVRVSCKTSGGYVFSWVRQAPGHGPEWMGGIITNFGTATYAQKFQGRVSITADTSTNTFYMDLNNLKSDDTAVYYCASAPRDTSTIAARFNRYFFDFWGPGTLVTVS
VL: B11 VL with I2V, Q3V, D32N, M49V, S54N, V59I, D96E, K108R
B15: g060f08 (Fab, V domains shown)
VH: B11 VH with Q1K, M2V
VL: B11 VL with I2V, Q3V, V59I
B16: g060f04 (Fab, V domains shown)
VH: B11 VH with Q1K, M2V, S25P, Q58R, V64I, I66V, T83A
VL: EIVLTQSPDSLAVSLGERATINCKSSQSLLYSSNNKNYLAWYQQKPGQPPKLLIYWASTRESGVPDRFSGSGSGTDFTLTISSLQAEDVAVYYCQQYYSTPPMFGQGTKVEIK
B17: g060d07 (Fab, V domains shown)
VH: B11 VH with Q1E, M2V, S25P, Q58R, V64I, I66V, T83A
VL: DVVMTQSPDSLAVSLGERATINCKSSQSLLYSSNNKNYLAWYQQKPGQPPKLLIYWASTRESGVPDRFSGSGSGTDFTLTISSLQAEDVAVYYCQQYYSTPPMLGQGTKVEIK
B18: g060g07 (Fab, V domains shown)
VH: QVQLQQSGPGLVKPSETLPLTCTVSGGSFSTYYWSWIRQSPEKGLEWIGYIQNSVNTNYNPSLKSRVIISVDTSNNQFSLKLRSVTAADTAVYYCARVSGWGPRGGIYFDYWGQGTLVTVS
VL: DIQMTQSPSSLSASVSDRVTITCRASQSINKFLNWYQQKPGKAPQLLIYAATNLQSGVPSRFSGSGSGTDFTLTISSLQTEDFATYYCQQSYDMPRTFGQGTKVEIK
B19: g060b10 (Fab, V domains shown)
VH: KVQLVESGAEVKKPGATVRVSCKASGYRFNDYCISWVRQAPGQGLEWMGWINGNNADTFYAPKLQGRVTMSTDTSTSTAYMELRNLRSDDTAVYFCARDRGRITLFGEVILRAGWFDSWGQGTLVTVS
VL: EIVMTQSPSSLSASVGDRVTITCQASQDISKYLNWYQQKPGRAPKLLIYEASNLETGVPPRFSGSGSGTHFTFTITGLQPEDIATYYCQQCDSLPPVFGQGTKLEVK

The target of the experiment is T1, Ovalbumin (UniProt P01012 2-386).
T1 sequence: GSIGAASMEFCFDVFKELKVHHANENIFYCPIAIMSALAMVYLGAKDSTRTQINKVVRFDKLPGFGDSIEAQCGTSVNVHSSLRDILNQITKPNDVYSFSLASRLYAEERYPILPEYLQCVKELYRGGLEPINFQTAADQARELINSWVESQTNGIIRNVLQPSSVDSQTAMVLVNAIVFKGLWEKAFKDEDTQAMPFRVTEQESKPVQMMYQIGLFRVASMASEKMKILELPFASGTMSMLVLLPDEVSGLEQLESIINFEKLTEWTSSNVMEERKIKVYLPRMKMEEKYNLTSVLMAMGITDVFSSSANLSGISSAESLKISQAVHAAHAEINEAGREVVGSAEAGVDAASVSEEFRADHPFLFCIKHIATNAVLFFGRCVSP
Description: ELISA, periplasmic extract on coated Ovalbumin. A general note: ELISA stands for enzyme-linked immunosorbent assay.
In the case of B1, the binding result was “no binding (tested: 10 µg/ml Ovalbumin coat)”. For B2 the value was “no binding (tested: 10 µg/ml Ovalbumin coat)”.

Regarding B3, the binding result is listed as “no binding (tested: 10 µg/ml Ovalbumin coat)”.

Consider B4, for which the binding result was “no binding (tested: 10 µg/ml Ovalbumin coat)”. For B5 the value was “no binding (tested: 10 µg/ml Ovalbumin coat)”; for B6, “no binding (tested: 10 µg/ml Ovalbumin coat)”; for B7, “no binding (tested: 10 µg/ml Ovalbumin coat)”. Consider B8, for which the binding result is “no binding (tested: 10 µg/ml Ovalbumin coat)”. For B9, the binding result is given as “no binding (tested: 10 µg/ml Ovalbumin coat)”. Regarding B10, the binding result is given as “no binding (tested: 10 µg/ml Ovalbumin coat)”. For B11, the binding result is given as “no binding (tested: 10 µg/ml Ovalbumin coat)”. For B12 the value was “no binding (tested: 10 µg/ml Ovalbumin coat)”; for B13, “no binding (tested: 10 µg/ml Ovalbumin coat)”; for B14, “no binding (tested: 10 µg/ml Ovalbumin coat)”.

Turning to B15, the binding result was “no binding (tested: 10 µg/ml Ovalbumin coat)”. On to B16, for which the binding result was “no binding (tested: 10 µg/ml Ovalbumin coat)”. As to B17, the binding result was “no binding (tested: 10 µg/ml Ovalbumin coat)”. For B18 the value was “no binding (tested: 10 µg/ml Ovalbumin coat)”; for B19, “no binding (tested: 10 µg/ml Ovalbumin coat)”.
